Measured values: patent US6251583A, “Peptide substrates for HCV NS3 protease assays” (Schering Corporation, priority 1999, dated 2001)
“And” between values parts separate entries of the source, which are not always exact repeats. Equal entries are not always repeated. Square brackets hold non-standard residues; d marks the D form. Peptide text beside a SMILES is read from it. * marks the point of attachment. ONp = O=[N+]([O-])c1ccc(O*)cc1; X2 = c1ccc(N=Nc2ccc(O*)cc2)cc1; X3 = O=[N+]([O-])c1cccc(O*)c1; X1 = Cc1cc(=O)oc2cc(O*)ccc12; Nva = CCC[C@H](N)C(=O)O

Assays:
NS3/4A(1-631)/4A(1-54) = molecular target: T1, NS3/4A(1-631)/4A(1-54) (Hepatitis C virus genotype 1a, UniProt P27958); experiment: Cleavage efficiency of nitrophenyl and other ester based chromogenic substrates, spectrophotometric; assay type: biochemical, HCV 1a(H); conditions: 25 mM MOPS pH 6.5, 10% glycerol, 0.15 M NaCl, 0.2% lauryl maltoside
T1 construct: a noncovalent complex between NS4A (54 residues) and NS3 (631 residues); histidine tag (N, cleaved yes); made in house; host or cells: baculovirus system / insect cells
Procedure: The chromogenic substrates defined by SEQ ID NOs: 5-13 were synthetically produced as described above and tested for cleavage efficiency in 25 mM MOPS buffer, pH 6.5, containing 10% (v/v) glycerol, 0.15 M NaCl, 0.2% lauryl maltoside. The substrates were cleaved by NS3/4A(1-631)/4A(1-54) (see Example 1). The rate of product formation was monitored by a spectrophotometer, at 400 nm for 4Np, 370 nm for PAP, and 340 nm for 3Np and HMC.

[1] = molecular target: (Ac-)[…]-(2-Cl-4-nitroanilide) (HCV)
[2] = molecular target: Ac-DTEDVVA(Nva)-O-3Np (HCV)
[3] = molecular target: Ac-DTEDVVA(Nva)-O-4Np (HCV)
[4] = molecular target: Ac-DTEDVVA(Nva)-O-HMC (HCV)
[5] = molecular target: Ac-DTEDVVA(Nva)-O-PAP (HCV)
[6] = molecular target: Ac-DTEDVVP(Nva)-O-HMC (HCV)
[7] = molecular target: Ac-DTEDVVP(Nva)-O-PAP (HCV)
[8] = molecular target: biotinylated amide substrates
[9] = molecular target: biotinylated ester substrate

## CCC[C@H](NC(=O)[C@H](C)NC(=O)[C@@H](NC(=O)[C@@H](NC(=O)[C@H](CC(=O)O)NC(=O)[C@H](CCC(=O)O)NC(=O)[C@@H](NC(=O)[C@H](CC(=O)O)NC(C)=O)[C@@H](C)O)C(C)C)C(C)C)C(=O)Oc1cccc([N+](=O)[O-])c1 [Ac-DTEDVVA(Nva)-O-3Np] (Ac-DTEDVVA[Nva]-X3)
NS3/4A(1-631)/4A(1-54)
  Km: 48 µM

## CCC[C@H](NC(=O)[C@H](C)NC(=O)[C@@H](NC(=O)[C@@H](NC(=O)[C@H](CC(=O)O)NC(=O)[C@H](CCC(=O)O)NC(=O)[C@@H](NC(=O)[C@H](CC(=O)O)NC(C)=O)[C@@H](C)O)C(C)C)C(C)C)C(=O)Oc1ccc([N+](=O)[O-])cc1 [Ac-DTEDVVA(Nva)-O-4Np] (Ac-DTEDVVA[Nva]-ONp)
NS3/4A(1-631)/4A(1-54)
  Km: 16 µM

## CCC[C@H](NC(=O)[C@H](C)NC(=O)[C@@H](NC(=O)[C@@H](NC(=O)[C@H](CC(=O)O)NC(=O)[C@H](CCC(=O)O)NC(=O)[C@@H](NC(=O)[C@H](CC(=O)O)NC(C)=O)[C@@H](C)O)C(C)C)C(C)C)C(=O)Oc1ccc2c(C)cc(=O)oc2c1 [Ac-DTEDVVA(Nva)-O-HMC] (Ac-DTEDVVA[Nva]-X1)
NS3/4A(1-631)/4A(1-54)
  Km: 20 µM

## CCC[C@H](NC(=O)[C@H](C)NC(=O)[C@@H](NC(=O)[C@@H](NC(=O)[C@H](CC(=O)O)NC(=O)[C@H](CCC(=O)O)NC(=O)[C@@H](NC(=O)[C@H](CC(=O)O)NC(C)=O)[C@@H](C)O)C(C)C)C(C)C)C(=O)Oc1ccc(N=Nc2ccccc2)cc1 [Ac-DTEDVVA(Nva)-O-PAP] (Ac-DTEDVVA[Nva]-X2)
NS3/4A(1-631)/4A(1-54)
  Km: 17 µM

## CCC[C@H](NC(=O)[C@@H]1CCCN1C(=O)[C@@H](NC(=O)[C@@H](NC(=O)[C@H](CC(=O)O)NC(=O)[C@H](CCC(=O)O)NC(=O)[C@@H](NC(=O)[C@H](CC(=O)O)NC(C)=O)[C@@H](C)O)C(C)C)C(C)C)C(=O)Oc1ccc2c(C)cc(=O)oc2c1 [Ac-DTEDVVP(Nva)-O-HMC] (Ac-DTEDVVP[Nva]-X1)
NS3/4A(1-631)/4A(1-54)
  Km: 40 µM

## CCC[C@H](NC(=O)[C@@H]1CCCN1C(=O)[C@@H](NC(=O)[C@@H](NC(=O)[C@H](CC(=O)O)NC(=O)[C@H](CCC(=O)O)NC(=O)[C@@H](NC(=O)[C@H](CC(=O)O)NC(C)=O)[C@@H](C)O)C(C)C)C(C)C)C(=O)Oc1ccc(N=Nc2ccccc2)cc1 [Ac-DTEDVVP(Nva)-O-PAP] (Ac-DTEDVVP[Nva]-X2)
NS3/4A(1-631)/4A(1-54)
  Km: 18 µM

## HCV NS3(1-631)/4A(1-54) protease, non-covalent complex of full-length HCV 1a(H) NS3 with amino acids (enzyme)
[1]
  kcat/Km: 10 M⁻¹ s⁻¹
…-(4-nitroanilide) (HCV)
  kcat/Km: 15 M⁻¹ s⁻¹ and 45 M⁻¹ s⁻¹
[2]
  kcat/Km: 7300 M⁻¹ s⁻¹
[3]
  kcat/Km: 38000 M⁻¹ s⁻¹
[4]
  kcat/Km: 8400 M⁻¹ s⁻¹
[5]
  kcat/Km: 4000 M⁻¹ s⁻¹
[6]
  kcat/Km: 8400 M⁻¹ s⁻¹
[7]
  kcat/Km: 13000 M⁻¹ s⁻¹
Ac-[…](Nva)-O-4Np (HCV)
  kcat/Km: 25000 M⁻¹ s⁻¹
[…](Nva)-O-3Np (HCV)
  kcat/Km: 11100 M⁻¹ s⁻¹
[8]
  catalytic efficiency: < 30000 M⁻¹ s⁻¹
[9]
  catalytic efficiency: < 460000 M⁻¹ s⁻¹
